Test results as given in CN113444180A (SHANGHAI SINOBAY BIO TECH CO LTD, dated 2021).

T1: AXL on CHO-AXL细胞 (human, UniProt P30530 26-894)
T1 construct: whole, on cells; the cell line itself is only called CHO-AXL
T1 sequence (looked up): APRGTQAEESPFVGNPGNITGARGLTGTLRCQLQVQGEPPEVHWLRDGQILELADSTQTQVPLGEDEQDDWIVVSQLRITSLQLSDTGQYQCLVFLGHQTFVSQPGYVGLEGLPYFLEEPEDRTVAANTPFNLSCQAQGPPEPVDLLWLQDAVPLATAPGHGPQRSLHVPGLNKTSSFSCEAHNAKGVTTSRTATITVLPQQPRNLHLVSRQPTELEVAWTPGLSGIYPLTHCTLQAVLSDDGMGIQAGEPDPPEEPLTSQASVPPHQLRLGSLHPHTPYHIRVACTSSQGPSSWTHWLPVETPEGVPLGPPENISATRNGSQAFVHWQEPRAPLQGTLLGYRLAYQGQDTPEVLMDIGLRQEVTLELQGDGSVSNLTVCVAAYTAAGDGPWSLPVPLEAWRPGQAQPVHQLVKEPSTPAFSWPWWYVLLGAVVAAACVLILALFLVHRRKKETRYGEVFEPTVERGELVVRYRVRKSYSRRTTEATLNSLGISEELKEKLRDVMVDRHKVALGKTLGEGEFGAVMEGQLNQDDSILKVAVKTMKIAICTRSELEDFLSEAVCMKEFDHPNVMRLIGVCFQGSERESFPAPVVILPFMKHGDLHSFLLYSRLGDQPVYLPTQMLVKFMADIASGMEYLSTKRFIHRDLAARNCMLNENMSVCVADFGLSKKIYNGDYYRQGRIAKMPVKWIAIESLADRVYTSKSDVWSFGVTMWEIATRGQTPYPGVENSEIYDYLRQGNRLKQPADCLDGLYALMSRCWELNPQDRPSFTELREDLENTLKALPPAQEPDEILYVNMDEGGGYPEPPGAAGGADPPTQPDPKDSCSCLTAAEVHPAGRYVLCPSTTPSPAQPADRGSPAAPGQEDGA

B1: Hu001-5抗体 (full-length human IgG1 kappa) (antibody, V domains shown)
VH: QVQLLESGGGVVQPGRSLRLSCAASGFTFSSYGMHWVRQAPGKGLEWVAVISYDGSNKYYADSVKGRFTISRDNSKNTLYLQMNSLRAEDTAVYYCAKDQVLAPVGGGLFDYWGQGTLVTVSA
VL: DIQLTQSPSSLSASVGDRVTITCRASQSISTYLNWYQQKPGKAPESLIFAASSLASGVPSRFSGSGSGTDFTLTISSLQPEDFATYYCQQSYSTPRTFGPGTKVEIK
B2: Hu001-11抗体 (full-length human IgG1 kappa) (antibody, V domains shown)
VH: QVQLLESGGGVVQPGRSLRLSCAASGFTFSSYGMHWVRQAPGKGLEWVAVISYDGSNKYYADSVKGRFTISRDNSKNTLYLQMNSLRAEDTAVYYCAKYGSSGPYWYFDLWGQGTLVTVSA
VL: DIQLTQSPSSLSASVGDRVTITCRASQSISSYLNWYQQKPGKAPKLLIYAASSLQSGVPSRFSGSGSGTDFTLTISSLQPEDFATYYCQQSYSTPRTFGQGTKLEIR

Columns and labels:
AXL on CHO-AXL细胞 [1] = target: T1, AXL on CHO-AXL细胞; assay: flow cytometry on CHO-AXL cells, acidic condition pH6.0, reference CCT301-38
AXL on CHO-AXL细胞 [2] = target: T1, AXL on CHO-AXL细胞; assay: flow cytometry on CHO-AXL cells, pH6.0 against pH7.4

Binder	平均荧光强度 (MFI), fold over positive control CCT301-38 (AXL on CHO-AXL细胞 [1])	平均荧光强度 (MFI), acidic condition over neutral condition (AXL on CHO-AXL细胞 [2])
B1	~4 倍 (fold)	~1.5 倍 (fold)
B2	~4 倍 (fold)	~1.5 倍 (fold)
